Measurements reported in publication PMC10397247.
Read-outs that look alike come from different tables or passages of the source. One block for each binder: values may come before it.

Key:
GCN2_T = assay: two-hybrid library CCmax;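 also: natural log of median RNA to DNA barcode read ratio; higher means stronger binding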
4H_GCN4 = assay: two-hybrid library CCmax;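 also: natural log of median RNA to DNA barcode read ratio; higher means stronger binding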
O14-AA = target: T1, O14-AA; assay: two-hybrid library CCmax; settings: mean of both orientations;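 also: natural log of median RNA to DNA barcode read ratio; higher means stronger binding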
T1 chain: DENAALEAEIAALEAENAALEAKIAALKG

4H43-AA = target: T2, 4H43-AA; assay: two-hybrid library CCmax; settings: mean of both orientations;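 also: natural log of median RNA to DNA barcode read ratio; higher means stronger binding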
T2 chain: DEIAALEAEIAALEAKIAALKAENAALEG

O11-AA = target: T3, O11-AA; assay: two-hybrid library CCmax; settings: mean of both orientations;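 also: natural log of median RNA to DNA barcode read ratio; higher means stronger binding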
T3 chain: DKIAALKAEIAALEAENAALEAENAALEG

O13-AA = target: T4, O13-AA; assay: two-hybrid library CCmax; settings: mean of both orientations;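 also: natural log of median RNA to DNA barcode read ratio; higher means stronger binding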
T4 chain: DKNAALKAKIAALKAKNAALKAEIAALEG

4H4038-AA = target: T5, 4H4038-AA; assay: two-hybrid library CCmax
T5 chain: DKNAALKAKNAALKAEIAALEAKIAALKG

4H_BCR = target: T6, 4H_BCR; assay: two-hybrid library CCmax; settings: mean of both orientations
T6 chain: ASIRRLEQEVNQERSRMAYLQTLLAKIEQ

4H451-AA = target: T7, 4H451-AA; assay: two-hybrid library CCmax; settings: mean of both orientations
T7 chain: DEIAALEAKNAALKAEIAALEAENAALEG

4H_APH = target: T8, 4H_APH; assay: two-hybrid library CCmax; settings: mean of both orientations
T8 chain: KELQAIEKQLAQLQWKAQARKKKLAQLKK

4H510-AA = target: T9, 4H510-AA; assay: two-hybrid library CCmax; settings: mean of both orientations
T9 chain: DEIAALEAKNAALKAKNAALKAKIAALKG

4H40-bN = target: T10, 4H40-bN; assay: two-hybrid library CCNG1
T10 chain: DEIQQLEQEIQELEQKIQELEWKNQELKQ

4H741-bN = target: T11, 4H741-bN; assay: two-hybrid library CCNG1
T11 chain: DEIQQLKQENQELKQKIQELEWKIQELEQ

4H477-bN = target: T12, 4H477-bN; assay: two-hybrid library CCNG1
T12 chain: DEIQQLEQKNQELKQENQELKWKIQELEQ

4H492-bN = target: T13, 4H492-bN; assay: two-hybrid library CCNG1
T13 chain: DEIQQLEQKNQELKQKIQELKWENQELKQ

4H481-AA = target: T14, 4H481-AA; assay: two-hybrid library CCmax; settings: mean of both orientations
T14 chain: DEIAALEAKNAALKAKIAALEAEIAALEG

4H3922-AA = target: T15, 4H3922-AA; assay: two-hybrid library CCmax; settings: mean of both orientations
T15 chain: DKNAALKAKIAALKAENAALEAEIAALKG

4H4033-AA = target: T16, 4H4033-AA; assay: two-hybrid library CCmax; settings: mean of both orientations
T16 chain: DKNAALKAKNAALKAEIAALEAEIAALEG

4H369-AA = target: T17, 4H369-AA; assay: two-hybrid library CCmax; settings: mean of both orientations
T17 chain: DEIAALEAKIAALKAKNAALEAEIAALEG

4H3664-AA = target: T18, 4H3664-AA; assay: two-hybrid library CCmax
T18 chain: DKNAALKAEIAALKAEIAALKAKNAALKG

4H55-AA = target: T19, 4H55-AA; assay: two-hybrid library CCmax; settings: mean of both orientations
T19 chain: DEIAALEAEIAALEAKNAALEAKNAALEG

4H662-AA = target: T20, 4H662-AA; assay: two-hybrid library CCmax; settings: mean of both orientations
T20 chain: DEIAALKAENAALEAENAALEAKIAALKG

4H347-AA = target: T21, 4H347-AA; assay: two-hybrid library CCmax; settings: mean of both orientations
T21 chain: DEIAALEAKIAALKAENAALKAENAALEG

4H3015-AA = target: T22, 4H3015-AA; assay: two-hybrid library CCmax; settings: mean of both orientations
T22 chain: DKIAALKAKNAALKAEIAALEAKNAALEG

4H452-AA = target: T23, 4H452-AA; assay: two-hybrid library CCmax; settings: mean of both orientations
T23 chain: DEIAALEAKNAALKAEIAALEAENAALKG

4H56-AA = target: T24, 4H56-AA; assay: two-hybrid library CCmax; settings: mean of both orientations
T24 chain: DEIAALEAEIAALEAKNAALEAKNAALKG

4H3001-AA = target: T25, 4H3001-AA; assay: two-hybrid library CCmax; settings: mean of both orientations
T25 chain: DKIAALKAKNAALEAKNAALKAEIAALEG

4H3438-AA = target: T26, 4H3438-AA; assay: two-hybrid library CCmax; settings: mean of both orientations
T26 chain: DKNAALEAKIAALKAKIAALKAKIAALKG

4H406-AA = target: T27, 4H406-AA; assay: two-hybrid library CCmax; settings: mean of both orientations
T27 chain: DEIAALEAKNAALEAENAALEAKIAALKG

4H2931-AA = target: T28, 4H2931-AA; assay: two-hybrid library CCmax
T28 chain: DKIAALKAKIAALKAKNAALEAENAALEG

4H3073-AA = target: T29, 4H3073-AA; assay: two-hybrid library CCmax
T29 chain: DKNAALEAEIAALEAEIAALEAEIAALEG

4H741-bA = target: T30, 4H741-bA; assay: two-hybrid library CCNG1
T30 chain: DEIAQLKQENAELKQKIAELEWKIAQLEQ

4H477-bA = target: T31, 4H477-bA; assay: two-hybrid library CCNG1
T31 chain: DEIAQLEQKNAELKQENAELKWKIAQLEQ

4H949-bA = target: T32, 4H949-bA; assay: two-hybrid library CCNG1
T32 chain: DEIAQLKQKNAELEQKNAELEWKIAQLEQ

4H492-bA = target: T33, 4H492-bA; assay: two-hybrid library CCNG1
T33 chain: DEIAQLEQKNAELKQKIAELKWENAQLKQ

4H40-bA = target: T34, 4H40-bA; assay: two-hybrid library CCNG1
T34 chain: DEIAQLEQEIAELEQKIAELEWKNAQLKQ

4H348-bA = target: T35, 4H348-bA; assay: two-hybrid library CCNG1
T35 chain: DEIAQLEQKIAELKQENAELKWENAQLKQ

4H349-bN = target: T36, 4H349-bN; assay: two-hybrid library CCNG1
T36 chain: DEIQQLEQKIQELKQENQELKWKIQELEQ

4H796-bN = target: T37, 4H796-bN; assay: two-hybrid library CCNG1
T37 chain: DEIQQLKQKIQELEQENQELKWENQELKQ

4H932-bN = target: T38, 4H932-bN; assay: two-hybrid library CCNG1
T38 chain: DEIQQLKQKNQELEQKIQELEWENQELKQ

4H949-bN = target: T39, 4H949-bN; assay: two-hybrid library CCNG1
T39 chain: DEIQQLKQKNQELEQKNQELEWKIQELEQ

4H730-bN = target: T40, 4H730-bN; assay: two-hybrid library CCNG1
T40 chain: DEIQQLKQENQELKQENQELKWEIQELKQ

4H3381-bN = target: T41, 4H3381-bN; assay: two-hybrid library CCNG1
T41 chain: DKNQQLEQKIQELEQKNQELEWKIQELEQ

4H56-bN = target: T42, 4H56-bN; assay: two-hybrid library CCNG1
T42 chain: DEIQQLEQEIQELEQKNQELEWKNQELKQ

4H_GCN4, sequence (chain, as listed by the source): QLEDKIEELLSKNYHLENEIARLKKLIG

- interaction score (GCN2_T): -1.9
- interaction score (4H_GCN4): -1.46
- interaction score (O14-AA): 1.56
- interaction score (4H43-AA): 0.922
- interaction score (O11-AA): -1.13
- interaction score (O13-AA): -2.19
- interaction score (4H4038-AA): -0.654
- interaction score (4H_BCR): -1.53
- interaction score (4H451-AA): -1.08
- interaction score (4H_APH): -2.34
- interaction score (4H510-AA): -1.16
Binder: DKNAALKAKNAALKAEIAALEAKIAALKG [4H4038-AA]

- interaction score (4H40-bN): 0.212
- interaction score (4H741-bN): -0.956
- interaction score (4H477-bN): 0.0764
- interaction score (4H492-bN): -0.862
Binder: DEIQQLEQEIQELEQKIQELEWKNQELKQ [4H40-bN]

- interaction score (4H481-AA): -1.04
- interaction score (4H3922-AA): -1.57
- interaction score (4H4033-AA): -1.55
- interaction score (4H369-AA): -1.44
- interaction score (4H3664-AA): 0.563
- interaction score (4H55-AA): -1.04
- interaction score (4H662-AA): -1.5
Binder: DKNAALKAEIAALKAEIAALKAKNAALKG [4H3664-AA]

- interaction score (GCN2_T): -2.11
- interaction score (4H347-AA): -1.41
- interaction score (4H3015-AA): -2.54
- interaction score (4H_GCN4; mean of both orientations): -2.51
- interaction score (4H452-AA): -1.98
- interaction score (4H56-AA): 1.81
- interaction score (4H_BCR): -1.73
- interaction score (4H3001-AA): -1.79
- interaction score (4H3438-AA): -1.54
- interaction score (4H406-AA): -0.98
- interaction score (4H_APH): -1.87
- interaction score (4H2931-AA): -1.66
- interaction score (4H3073-AA): 0.803
Binder: DKIAALKAKIAALKAKNAALEAENAALEG [4H2931-AA]

- interaction score (4H741-bA): -0.423
- interaction score (4H477-bA): -1.02
- interaction score (4H949-bA): -1.8
- interaction score (4H492-bA): 1.72
- interaction score (4H40-bA): 1.76
Binder: DEIAQLEQEIAELEQKIAELEWKNAQLKQ [4H40-bA]

- interaction score (4H741-bA): -0.761
- interaction score (4H477-bA): -1.23
- interaction score (4H492-bA): -0.0783
- interaction score (4H348-bA): 0.473
- interaction score (4H40-bA): -0.298
Binder: DEIAQLEQKIAELKQENAELKWENAQLKQ [4H348-bA]

- interaction score (4H349-bN): -0.946
- interaction score (4H796-bN): -1.3
- interaction score (4H932-bN): -0.998
- interaction score (4H949-bN): -1.1
- interaction score (4H730-bN): -1.25
- interaction score (4H3381-bN): 0.302
- interaction score (4H56-bN): -1.09
Binder: DKNQQLEQKIQELEQKNQELEWKIQELEQ [4H3381-bN]
